Reference: publication PMC5986797 (2018)

T1: recombinant laminin LAMA3_(2928–3150) protein (human, UniProt Q16787 2928-3150)
T1 chain: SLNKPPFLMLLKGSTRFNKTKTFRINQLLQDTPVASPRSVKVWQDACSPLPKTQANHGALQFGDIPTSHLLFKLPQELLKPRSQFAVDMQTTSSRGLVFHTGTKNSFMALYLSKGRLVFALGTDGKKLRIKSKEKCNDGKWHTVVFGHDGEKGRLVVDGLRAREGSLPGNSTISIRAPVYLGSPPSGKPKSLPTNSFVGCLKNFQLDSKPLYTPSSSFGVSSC


Key:
Test in all cases: SPR
[1] = biological target: T1, recombinant laminin LAMA3_(2928–3150) …
[2] = biological target: recombinant human laminin-521 (human, UniProt O15230 36-3695; P55268 33-1798; P11047 34-1609)
[3] = biological target: T1, recombinant laminin LAMA3_(2928–3150) …

Binder | koff [1] | koff [2] | Kd [3]
vascular endothelial cell growth factor VEGF-A165 (ligand) APMAEGGGQNHHEVVKFMDVYQRSYCHPIETLVDIFQEYPDEIEYIFKPSCVPLMRCGGCCNDEGLECVPTEESNITMQIMRIKPHQGQHIGEMSFLQHNKCECRPKKDRARQENPCGPCSERRKHLFVQDPQTCKCSCKNTDSRCKARQLELNERTCRCDKPRR | 0.00663 s⁻¹ | 0.00324 s⁻¹ | 1.47 nM
platelet-derived growth factor PDGF-BB (ligand) SLGSLTIAEPAMIAECKTRTEVFEISRRLIDRTNANFLVWPPCVEVQRCSGCCNNRNVQCRPTQVQLRPVQVRKIEIVRKKPIFKKATVTLEDHLACKCETVAAARPVT | 0.0136 s⁻¹ | 0.00497 s⁻¹ | 12.1 nM
placental growth factor (PlGF)-2 (ligand) LPAVPPQQWALSAGNGSSEVEVVPFQEVWGRSYCRALERLVDVVSEYPSEVEHMFSPSCVSLLRCTGCCGDENLHCVPVETANVTMQLLKIRSGDRPSYVELTFSQHVRCECRPLREKMKPERRRPKGRGKRRREKQRPTDCHLCGDAVPRR | – | 0.0246 s⁻¹ | –
